Measured values as given in patent US20250011363A1, “OPTIMIZED SHORTENED PEPTIDE THAT BINDS TO ACETYLCHOLINE RECEPTOR, AND USE THEREOF” (SKINMED CO., LTD., priority 2021, published 2025).

Molecular target: acetylcholine receptor
Test: SPR, acetylcholine receptor on CM5 chip, peptide at 10 uM

Binding affinity (RU) | Binder
123 RU | RRVYSR [6mer-1-548]
139 RU | RKGQYK [6mer-1-578]
148 RU | RKVQQR [6mer-1-547]
142 RU | KKSYQR [6mer-1-549]
154 RU | RKLLCK [6mer-1-571]
128 RU | KKWYLK [6mer-1-555]
139 RU | KRSITK [6mer-1-564]
131 RU | RKVYLK [6mer-1-561]
149 RU | KRVICR [6mer-1-544]
128 RU | KKQYQR [6mer-1-577]
136 RU | RKWFTR [6mer-1-541]
153 RU | RKRQRR [6mer-1-576]
139 RU | RRRLTK [6mer-1-559]
139 RU | RRLIQR [6mer-1-558]
148 RU | KRGIRK [6mer-1-539]
126 RU | KRVLLK [6mer-1-572]
142 RU | RRSQCK [6mer-1-538]
148 RU | KRSYQR [6mer-1-562]
148 RU | KRWVRR [6mer-1-575]
148 RU | RRVITK [6mer-1-569]
139 RU | RRSFTR [6mer-1-563]
151 RU | KRSIRR [6mer-1-565]
128 RU | RRGVRK [6mer-1-553]

Binding affinity (RU) | Binder
145 RU | KKGFTK [6mer-1-556]
148 RU | RKSYLR [6mer-1-574]
148 RU | KRSVRK [6mer-1-579]
128 RU | KRQVQK [6mer-1-557]
148 RU | KKSFCR [6mer-1-566]
154 RU | RRGLCK [6mer-1-537]
127 RU | RRSFSK [6mer-1-560]
144 RU | RKRYRK [6mer-1-552]
148 RU | RRLICR [6mer-1-550]
122 RU | RKRLRK [6mer-1-570]
151 RU | RRWFRK [6mer-1-536]
128 RU | KRWFRR [6mer-1-542]
127 RU | RRSYRK [6mer-1-545]
131 RU | KRSVTR [6mer-1-554]
126 RU | KRVLLR [6mer-1-573]
145 RU | RRSVCK [6mer-1-543]
142 RU | KRGRLR [6mer-1-551]
123 RU | RKLVQR [6mer-1-546]
147 RU | KRWQQK [6mer-1-568]
139 RU | RRVILK [6mer-1-535]
128 RU | KRVQTR [6mer-1-540]
136 RU | KKRVSR [6mer-1-567]

Molecular target: acetylcholine receptor
Test: SPR, receptor immobilised on chip, peptide at 10 µM

Binding affinity | Binder
146 RU | RQQQKK [6mer-2-516]
146 RU | KRVLKK [6mer-2-510]
151 RU | KLVTKK [6mer-2-518]
136 RU | RGFYRK [6mer-2-509]
142 RU | KRLLKR [6mer-2-533]
146 RU | RGRYKR [6mer-2-523]
153 RU | KLRTKK [6mer-2-517]
128 RU | RGIQKR [6mer-2-524]
135 RU | KQIQRR [6mer-2-519]
144 RU | KQYTRK [6mer-2-521]
148 RU | RWFTRR [6mer-2-512]
139 RU | RVQLRR [6mer-2-534]
148 RU | KRQCKK [6mer-2-505]
148 RU | KVIYKR [6mer-2-531]
121 RU | RRLTRK [6mer-2-513]
139 RU | RSYSKR [6mer-2-530]
144 RU | KSYCKR [6mer-2-520]
124 RU | RVVLRK [6mer-2-522]
121 RU | RVFLKK [6mer-2-508]
151 RU | KGFRKK [6mer-2-528]
123 RU | RWYCRK [6mer-2-515]
124 RU | KQQRKR [6mer-2-529]
135 RU | KSLLKK [6mer-2-506]
126 RU | RVFCRR [6mer-2-511]
124 RU | KGLQKK [6mer-2-514]
144 RU | RVLLRK [6mer-2-526]
145 RU | KWVRKK [6mer-2-525]
145 RU | RGICKR [6mer-2-507]
145 RU | RGQTRR [6mer-2-527]
147 RU | KSITKR [6mer-2-532]

More lines, now with the values behind:

Binder | Binding affinity
KSYSKK [6mer-2-501] | 144 RU
KVQTKK [6mer-2-503] | 154 RU
KSFCKR [6mer-2-502] | 144 RU
RGLTRK [6mer-2-504] | 154 RU
